Results taken from patent EP4578463A1, “ENDO-180 TARGETED ANTIBODY-DRUG CONJUGATES” (Oncomatryx Biopharma, S.L., priority 2023, dated 2025).

Tests used:
[1] = tested on: IC9LC11 non-small cell lung cancer patient-derived xenograft; assay: Antitumor activity in IC9LC11 non-small cell lung cancer patient-derived xenograft model; assay type: in vivo, immunodeficient female mice; settings: 5 mg/kg; control group end day, D28
[2] = molecular target: T1, human Endo180-moFc domains I-III (aa 31-370) (human, UniProt Q9UBG0 31-370); assay: ELISA, immobilized human Endo180-mouse Fc DI-III
T1 construct: also called huEndo180 (DI-III); huEndo180-moFc DI-III; not shown: murine Fc domain
T1 sequence: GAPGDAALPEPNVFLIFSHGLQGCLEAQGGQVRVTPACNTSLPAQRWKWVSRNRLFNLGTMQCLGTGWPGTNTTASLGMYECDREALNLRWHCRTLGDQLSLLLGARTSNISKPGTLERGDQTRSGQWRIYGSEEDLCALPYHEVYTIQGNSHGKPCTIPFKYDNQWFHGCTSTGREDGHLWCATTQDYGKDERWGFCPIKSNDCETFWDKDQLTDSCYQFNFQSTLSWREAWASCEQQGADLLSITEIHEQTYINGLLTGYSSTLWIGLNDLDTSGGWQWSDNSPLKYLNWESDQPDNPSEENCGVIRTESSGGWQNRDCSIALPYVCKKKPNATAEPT

[3] = molecular target: T2, Endo180 on cells (Endo180-expressing HT1080-WT cells; Endo180-transfected HEK293-Endo180 cells) (UniProt Q9UBG0 31-1479); assay: flow cytometry on HT1080-WT cells
T2 construct: whole, on cells; One molecule is used for the endogenous protein on HT1080-WT and the transfected protein on HEK293-Endo180; also called uPARAP
T2 sequence (looked up): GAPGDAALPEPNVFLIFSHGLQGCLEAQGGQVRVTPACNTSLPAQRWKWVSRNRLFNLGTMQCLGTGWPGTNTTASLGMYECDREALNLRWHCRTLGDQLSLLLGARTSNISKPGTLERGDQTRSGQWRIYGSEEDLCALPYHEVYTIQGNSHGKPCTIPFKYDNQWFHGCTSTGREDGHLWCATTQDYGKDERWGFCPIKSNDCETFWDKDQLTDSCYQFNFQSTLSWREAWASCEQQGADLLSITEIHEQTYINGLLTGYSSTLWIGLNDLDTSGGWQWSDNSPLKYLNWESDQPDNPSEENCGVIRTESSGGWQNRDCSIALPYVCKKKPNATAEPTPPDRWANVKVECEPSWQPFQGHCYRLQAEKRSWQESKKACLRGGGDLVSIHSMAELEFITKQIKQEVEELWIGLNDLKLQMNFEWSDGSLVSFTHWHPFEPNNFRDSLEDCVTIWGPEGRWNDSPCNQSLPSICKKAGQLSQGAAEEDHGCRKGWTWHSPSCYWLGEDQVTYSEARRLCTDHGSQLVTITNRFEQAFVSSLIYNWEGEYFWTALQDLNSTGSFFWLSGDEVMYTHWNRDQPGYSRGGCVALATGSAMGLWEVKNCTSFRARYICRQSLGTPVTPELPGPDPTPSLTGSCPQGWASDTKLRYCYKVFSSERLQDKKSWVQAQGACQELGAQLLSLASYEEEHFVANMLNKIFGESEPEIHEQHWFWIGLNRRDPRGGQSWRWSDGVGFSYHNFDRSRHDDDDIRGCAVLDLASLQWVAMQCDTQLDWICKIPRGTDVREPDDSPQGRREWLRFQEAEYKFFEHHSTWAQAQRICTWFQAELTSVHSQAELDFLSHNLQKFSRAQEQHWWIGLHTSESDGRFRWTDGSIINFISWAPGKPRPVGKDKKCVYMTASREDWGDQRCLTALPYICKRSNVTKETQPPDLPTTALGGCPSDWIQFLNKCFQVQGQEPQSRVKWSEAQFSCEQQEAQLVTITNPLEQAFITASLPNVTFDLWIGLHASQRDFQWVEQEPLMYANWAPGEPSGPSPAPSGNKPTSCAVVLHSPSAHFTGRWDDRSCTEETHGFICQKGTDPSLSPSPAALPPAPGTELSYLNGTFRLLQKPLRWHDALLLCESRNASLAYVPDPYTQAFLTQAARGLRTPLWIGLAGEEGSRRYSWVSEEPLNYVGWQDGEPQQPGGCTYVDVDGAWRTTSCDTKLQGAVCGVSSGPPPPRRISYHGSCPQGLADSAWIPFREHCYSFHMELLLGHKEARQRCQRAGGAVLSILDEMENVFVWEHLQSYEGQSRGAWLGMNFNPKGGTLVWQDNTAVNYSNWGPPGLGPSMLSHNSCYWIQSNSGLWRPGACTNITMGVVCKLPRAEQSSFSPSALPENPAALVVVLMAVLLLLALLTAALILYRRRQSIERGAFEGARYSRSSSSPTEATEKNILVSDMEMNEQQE

[4] = molecular target: T3, human Endo180-moFc domains I-IV (aa 31-513) (human, UniProt Q9UBG0 31-513); assay: ELISA, immobilized human Endo180-mouse Fc DI-IV
T3 construct: also called huEndo180 (DI-IV); huEndo180-moFc DI-IV; not shown: murine Fc domain
T3 sequence: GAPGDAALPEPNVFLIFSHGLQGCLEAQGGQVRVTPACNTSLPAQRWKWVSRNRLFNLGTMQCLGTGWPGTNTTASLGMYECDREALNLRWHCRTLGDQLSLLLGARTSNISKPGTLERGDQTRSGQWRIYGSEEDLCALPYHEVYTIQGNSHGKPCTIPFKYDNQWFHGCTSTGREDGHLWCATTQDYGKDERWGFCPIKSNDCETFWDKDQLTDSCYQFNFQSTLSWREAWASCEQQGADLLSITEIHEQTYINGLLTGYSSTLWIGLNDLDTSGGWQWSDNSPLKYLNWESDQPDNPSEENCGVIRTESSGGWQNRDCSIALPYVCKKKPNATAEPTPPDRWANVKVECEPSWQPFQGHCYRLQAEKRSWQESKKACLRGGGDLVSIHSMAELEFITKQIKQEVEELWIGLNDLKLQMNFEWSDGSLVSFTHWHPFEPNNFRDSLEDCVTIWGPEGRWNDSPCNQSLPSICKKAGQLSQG

[5] = molecular target: T2, Endo180 on cells (Endo180-expressing …); assay: flow cytometry on HEK293-Endo180 cells

CC(=O)O[C@@]12CO[C@@H]1C[C@H](O)[C@@]1(C)C(=O)[C@H](O)C3=C(C)[C@@H](OC(=O)[C@H](O)[C@@H](NC(=O)OC(C)(C)C)c4ccccc4)C[C@@](O)([C@@H](OC(=O)c4ccccc4)[C@H]21)C3(C)C [Docetaxel]
TGI [1]: 73%
tolerability based on body weight data and clinical observations (mouse, in vivo): well tolerated, except in one mouse
relative weight loss (one mouse, at the group end day): 16.0%

B1: IgG G7V Δab (antibody, V domains shown)
VH: EVQLVESGGGLVKPGGSLRLSCAASGFTFSSYSMNWVRQAPGKGLEWVANIKPDGSERHSVDSVKGRFTISRDNSKNSLYLQMNSLRAEDTAVYYCARPGAGRLDYWGQGTLVTVSS
VL: SSELTQDPAVSVALGQTVRITCQGDSLRSYYASWYQQKPGQAPVLVVYGKNNRPSGIPDRFSGSSSGNTASLTITGAQAEDEADYYCNSRDSSGNPWAFGGGTKVTVL
notes: also called IgG G7V with a silent Fc
EC50 [2]: 0.45 nM
EC50 [3]: 3.7 nM
EC50 [4]: 0.53 nM

B2: OMTX707 antibody-drug conjugate (antibody, human IgG1, lambda, V domains shown)
VH: B1 VH
VL: SSELTQDPAVSVALGQTVRITCQGDSLRSYYASWYQQKPGQAPVLVVYGKNNRPSGIPDRFSGSSSGNTASLTITGAQAEDEADYYCNSRDSSGNPWAFGGGTKVTVLG
modifications: drug-linker TAM558 on cysteine residues, non-site directed (sites not given); drug-linker TAM558 (cytolysin-linker maleimide caproyl vcPABA) on cysteine residues, non-site directed, DAR 3.79
notes: antibody-drug conjugate; also called OMTX707 ADC
EC50 [5]: 1.3 nM

B3: OMTX807 ADC (antibody-drug conjugate) (antibody, human IgG1, lambda, V domains shown)
VH: B1 VH
VL: B2 VL
modifications: drug-linker GGFG-DXd on cysteine residues, non-specific site (sites not given); drug-linker GGFG-DXd on cysteine residues, non-specific site, DAR 8.05
notes: antibody-drug conjugate
EC50 [5]: 0.7 nM
